Measured values taken from IntAct's records for PubMed 31515488.

B1: Cyclic AMP-dependent transcription factor ATF-4 (Homo sapiens), P18848 (parent)
chain: MTEMSFLSSEVLVGDLMSPFDQSGLGAEESLGLLDDYLEVAKHFKPHGFSSDKAKAGSSEWLAVDGLVSPSNNSKEDAFSGTDWMLEKMDLKEFDLDALLGIDDLETMPDDLLTTLDDTCDLFAPLVQETNKQPPQTVNPIGHLPESLTKPDQVAPFTFLQPLPLSPGVLSSTPDHSFSLELGSEVDITEGDRKPDYTAYVAMIPQCIKEEDTPSDNDSGICMSPESYLGSPQHSPSTRGSPNRSLPSPGVLCGSARPKPYDPPGEKMVAAKVKGEKLDKKLKKMEQNKTAATRYRQKKRAEQEALTGECKELEKKNEALKERADSLAKEIQYLKDLIEEVRKARGKKRVP
partner: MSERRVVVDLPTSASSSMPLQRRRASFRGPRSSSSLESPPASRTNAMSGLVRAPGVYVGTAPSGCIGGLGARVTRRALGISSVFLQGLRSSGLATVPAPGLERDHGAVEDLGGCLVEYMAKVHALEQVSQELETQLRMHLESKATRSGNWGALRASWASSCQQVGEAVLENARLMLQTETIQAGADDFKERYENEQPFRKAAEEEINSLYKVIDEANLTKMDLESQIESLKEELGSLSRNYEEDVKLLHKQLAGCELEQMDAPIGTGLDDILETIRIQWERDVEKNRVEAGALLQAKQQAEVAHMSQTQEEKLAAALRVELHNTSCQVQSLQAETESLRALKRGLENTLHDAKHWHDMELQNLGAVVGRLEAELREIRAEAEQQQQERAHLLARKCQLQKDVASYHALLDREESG
B2: Peroxisomal bifunctional enzyme (Homo sapiens), Q08426 (parent)
chain: MAEYTRLHNALALIRLRNPPVNAISTTLLRDIKEGLQKAVIDHTIKAIVICGAEGKFSAGADIRGFSAPRTFGLTLGHVVDEIQRNEKPVVAAIQGMAFGGGLELALGCHYRIAHAEAQVGLPEVTLGLLPGARGTQLLPRLTGVPAALDLITSGRRILADEALKLGILDKVVNSDPVEEAIRFAQRVSDQPLESRRLCNKPIQSLPNMDSIFSEALLKMRRQHPGCLAQEACVRAVQAAVQYPYEVGIKKEEELFLYLLQSGQARALQYAFFAERKANKWSTPSGASWKTASARPVSSVGVVGLGTMGRGIVISFARARIPVIAVDSDKNQLATANKMITSVLEKEASKMQQSGHPWSGPKPRLTSSVKELGGVDLVIEAVFEEMSLKKQVFAELSAVCKPEAFLCTNTSALDVDEIASSTDRPHLVIGTHFFSPAHVMKLLEVIPSQYSSPTTIATVMNLSKKIKKIGVVVGNCFGFVGNRMLNPYYNQAYFLLEEGSKPEEVDQVLEEFGFKMGPFRVSDLAGLDVGWKSRKGQGLTGPTLLPGTPARKRGNRRYCPIPDVLCELGRFGQKTGKGWYQYDKPLGRIHKPDPWLSKFLSRYRKTHHIEPRTISQDEILERCLYSLINEAFRILGEGIAASPEHIDVVYLHGYGWPRHKGGPMFYASTVGLPTVLEKLQKYYRQNPDIPQLEPSDYLKKLASQGNPPLKEWQSLAGSPSSKL
partner: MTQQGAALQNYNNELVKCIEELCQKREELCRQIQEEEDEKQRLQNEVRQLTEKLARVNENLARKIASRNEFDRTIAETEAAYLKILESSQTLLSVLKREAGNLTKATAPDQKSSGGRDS
B3: Serine/threonine-protein kinase PAK 5 (Homo sapiens), Q9P286 (parent)
chain: MFGKKKKKIEISGPSNFEHRVHTGFDPQEQKFTGLPQQWHSLLADTANRPKPMVDPSCITPIQLAPMKTIVRGNKPCKETSINGLLEDFDNISVTRSNSLRKESPPTPDQGASSHGPGHAEENGFITFSQYSSESDTTADYTTEKYREKSLYGDDLDPYYRGSHAAKQNGHVMKMKHGEAYYSEVKPLKSDFARFSADYHSHLDSLSKPSEYSDLKWEYQRASSSSPLDYSFQFTPSRTAGTSGCSKESLAYSESEWGPSLDDYDRRPKSSYLNQTSPQPTMRQRSRSGSGLQEPMMPFGASAFKTHPQGHSYNSYTYPRLSEPTMCIPKVDYDRAQMVLSPPLSGSDTYPRGPAKLPQSQSKSGYSSSSHQYPSGYHKATLYHHPSLQSSSQYISTASYLSSLSLSSSTYPPPSWGSSSDQQPSRVSHEQFRAALQLVVSPGDPREYLANFIKIGEGSTGIVCIATEKHTGKQVAVKKMDLRKQQRRELLFNEVVIMRDYHHDNVVDMYSSYLVGDELWVVMEFLEGGALTDIVTHTRMNEEQIATVCLSVLRALSYLHNQGVIHRDIKSDSILLTSDGRIKLSDFGFCAQVSKEVPKRKSLVGTPYWMAPEVISRLPYGTEVDIWSLGIMVIEMIDGEPPYFNEPPLQAMRRIRDSLPPRVKDLHKVSSVLRGFLDLMLVREPSQRATAQELLGHPFLKLAGPPSCIVPLMRQYRHH

Variants of: B1
Settings: with bfsp2_human BFSP2, Q13515

Variant	effect of a mutation on the interaction
P258A	with no effect
A324V	with no effect
E322D	disrupting interaction strength
T137S	with no effect

Variants of: B2
Settings: with ssna1_human SSNA1, O43805

Variant	effect of a mutation on the interaction
Q685K	with no effect
R556G	with no effect

Variants of: B3
Settings: with uxt_human UXT

Variant	effect of a mutation on the interaction
V604I	with no effect
S511N	with no effect

Variants of: B3
Settings: with fhl3_human FHL3, Q13643
Chain of fhl3_human FHL3, Q13643 (Q13643 whole entry): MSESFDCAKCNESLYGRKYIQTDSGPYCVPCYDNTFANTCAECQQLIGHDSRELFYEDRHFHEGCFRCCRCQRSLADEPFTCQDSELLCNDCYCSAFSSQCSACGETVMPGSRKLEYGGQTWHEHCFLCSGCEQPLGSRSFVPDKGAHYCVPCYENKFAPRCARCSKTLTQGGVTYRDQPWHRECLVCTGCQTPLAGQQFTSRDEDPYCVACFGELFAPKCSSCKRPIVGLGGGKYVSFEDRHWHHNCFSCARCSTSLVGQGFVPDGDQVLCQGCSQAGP

Variant	effect of a mutation on the interaction
V604I	with no effect
S511N	with no effect

Variants of: B3
Settings: with pdli7_human PDLIM7, Q9NR12
Chain of pdli7_human PDLIM7, Q9NR12 (Q9NR12 whole entry): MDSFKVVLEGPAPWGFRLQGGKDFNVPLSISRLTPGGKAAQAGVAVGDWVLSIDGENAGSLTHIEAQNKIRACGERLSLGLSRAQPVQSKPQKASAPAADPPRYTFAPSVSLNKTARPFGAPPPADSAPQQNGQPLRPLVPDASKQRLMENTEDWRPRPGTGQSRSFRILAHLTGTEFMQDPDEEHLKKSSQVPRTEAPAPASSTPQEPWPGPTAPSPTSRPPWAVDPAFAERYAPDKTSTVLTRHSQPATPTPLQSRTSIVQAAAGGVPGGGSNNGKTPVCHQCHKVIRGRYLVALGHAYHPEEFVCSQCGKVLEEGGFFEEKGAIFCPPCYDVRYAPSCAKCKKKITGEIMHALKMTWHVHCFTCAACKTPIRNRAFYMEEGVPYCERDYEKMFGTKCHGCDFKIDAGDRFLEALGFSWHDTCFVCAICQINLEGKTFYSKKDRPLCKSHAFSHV

Variant	effect of a mutation on the interaction
V604I	with no effect
S511N	with no effect
